Measured values from patent US8252521B2, “Method of screening substance useful in treating disease with the use of GPR40 and phospholipase” (Eisai R&D Management Co., Ltd., priority 2005, dated 2012).

T1: human GPR43 (Homo sapiens, UniProt O15552)
T1 construct: expressed in transfected cells; host or cells: SE302 cells (HEK293 clone carrying a CRE4-VIP promoter PLAP reporter), infected with retrovirus made from pBabeCL(GPR43)IH and selected with hygromycin
T1 sequence (O15552 1-330): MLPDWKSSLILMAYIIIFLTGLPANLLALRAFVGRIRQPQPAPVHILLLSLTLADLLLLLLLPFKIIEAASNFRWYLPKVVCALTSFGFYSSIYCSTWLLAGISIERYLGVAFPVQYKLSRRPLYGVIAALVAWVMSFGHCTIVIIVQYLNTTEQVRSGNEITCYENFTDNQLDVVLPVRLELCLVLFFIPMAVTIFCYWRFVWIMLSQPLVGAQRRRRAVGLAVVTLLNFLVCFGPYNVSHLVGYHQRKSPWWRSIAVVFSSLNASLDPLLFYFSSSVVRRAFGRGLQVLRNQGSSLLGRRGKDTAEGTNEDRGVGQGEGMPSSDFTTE


What was measured:
Assay type in all cases: cell-based
Conditions in all cases: forskolin 0.3 μM, 24 hours with sample
GFP-SE302 cells = assay: PLAP reporter transcription activity in GFP-SE302 control cells
Method: (§1) The GPR40-SE302 cells and GPR43-SE302 cells constructed in Examples 6 and 7 described above were suspended in a culture medium for measurement of transcription activity (DMEM containing FBS, which was heat-treated at 65° C. for 30 min, at a final concentration of 10%) and seeded onto a 96 well plate (Becton Dickinson, Co.) at 1×10^4 cells/well. In addition, as control cells, SE302 cells expressing green fluorescent protein (GFP, Invitrogen Corporation) (referred to as “GFP-SE302 cells” hereinafter) were used. Specifically, GFP-302 cells were prepared by obtaining a virus for expressing GFP using the method shown in Example 3 and 4, and transfecting SE302 cells with the virus using the method shown in Example 6. Cells were cultured for 24 hours after seeding, and forskolin prepared at a final concentration of 0.3 μM and a sample were added. Cells were cultured for another 24 hours, and 5 μL of the cell supernatant was recovered and transferred to a polypropylene 384-well white plate (Nalge Nunc International, Co.). Then, 20 μL of the assay buffer (280 mmol/L Na2CO3—NaHCO3, 8 mmol/L MgSO4, pH 10) and 25 μL of Lumiphos530 (Lumigen, Co.) were added. Following a 2-hour reaction at room temperature, chemiluminescence in each well was measured using a Fusion plate reader (Perkin Elmer, Co.) and was defined as the transcription activity. Based on these measured levels, stimulation/inhibition of transcription activity was calculated using the equation (I) shown below and described as [% of control]. Activities of the group with a sample added were calculated using the level of a control placed on each plate. [% of control]=(X−C)/(F−C)×100 (I) wherein,
(§2) X: PLAP transcription activity in the group added with a sample,
(§3) F: Mean level of transcription activity in 2 wells of a positive control (no sample added, stimulated with forskolin), and
(§4) C: Mean level of transcription activity in 2 wells of a negative control (no sample added, not stimulated with forskolin).

human GPR43 = target: T1, human GPR43; assay: PLAP reporter transcription activity in GPR43-SE302 cells
Method: as §1, §2, §3, §4

human GPR40 = target: T2, human GPR40 (Homo sapiens, UniProt O14842); assay: PLAP reporter transcription activity in GPR40-SE302 cells
T2 construct: expressed in transfected cells; host or cells: SE302 cells (HEK293 clone carrying a CRE4-VIP promoter PLAP reporter), infected with retrovirus made from pBabeCL(GPR40)IH and selected with hygromycin
T2 sequence (O14842 whole entry): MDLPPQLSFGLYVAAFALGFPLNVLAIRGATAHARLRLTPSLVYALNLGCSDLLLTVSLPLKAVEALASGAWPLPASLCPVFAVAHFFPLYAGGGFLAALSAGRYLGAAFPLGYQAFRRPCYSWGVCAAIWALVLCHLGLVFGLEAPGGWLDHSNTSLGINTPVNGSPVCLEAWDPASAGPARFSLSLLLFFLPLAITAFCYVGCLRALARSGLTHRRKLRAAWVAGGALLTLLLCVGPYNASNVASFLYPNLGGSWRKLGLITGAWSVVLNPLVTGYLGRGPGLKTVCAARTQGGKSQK
Method: as §1, §2, §3, §4

Molecule | PLAP activity in GFP-SE302 cells (GFP-SE302 cells) | PLAP activity in GPR43-SE302 cells (human GPR43) | PLAP activity in GPR40-SE302 cells (human GPR40)
porcine pancreatic sPLA2: Phospholipase A2 from porcine pancreas, Sigma; primarily Group IB secretory phospholipase A2 (Swiss Prot P00592) | no elevation of PLAP activity | no elevation of PLAP activity | concentration dependent elevation of PLAP activity
mGX-sPLA2-His: purified mouse C-terminal His-tagged Group X secretory phospholipase A2, expressed in Sf9 cells (protein, UniProt Q9QXX3 29-151, looked up, C-terminal His6 tag, purified mouse C-terminal His-tagged Group X secretory phospholipase A2, expressed in Sf9 cells) Group 10 secretory …: GLLELAGTLDCVGPRSPMAYMNYGCYCGLGGHGEPRDAIDWCCYHHDCCYSRAQDAGCSPKLDRYPWKCMDHHILCGPAENKCQELLCRCDEELAYCLAGTEYHLKYLFFPSILCEKDSPKCN | no specific elevation of PLAP activity | – | concentration dependent elevations of PLAP activity
C-terminal FLAG tagged hGX-sPLA2: C-terminal FLAG-tagged human GX-sPLA2 (SEQ ID NO: 41), purified from silkworm pupa extract (protein, listed as Homo sapiens, C-terminal FLAG tag) MGPLPVCLPIMLLLLLPSLLLLLLLPGPGSGEASRILRVHRRGILELAGTVGCVGPRTPIAYMKYGCFCGLGGHGQPRDAIDWCCHGHDCCYTRAEEAGCSPKTERYSWQCVNQSVLCGPAENKCQELLCKCDQEIANCLAQTEYNLKYLFYPQFLCEPDSPKCDDYKDDDDK | no elevation of PLAP activity | no elevation of PLAP activity | concentration-dependent elevation of PLAP activity
hGX-sPLA2-His: purified human C-terminal His-tagged Group X secretory phospholipase A2, expressed in Sf9 cells (protein, UniProt O15496 43-165, looked up, C-terminal His6 tag, purified human C-terminal His-tagged Group X secretory phospholipase A2, expressed in Sf9 cells) Group 10 secretory …: GILELAGTVGCVGPRTPIAYMKYGCFCGLGGHGQPRDAIDWCCHGHDCCYTRAEEAGCSPKTERYSWQCVNQSVLCGPAENKCQELLCKCDQEIANCLAQTEYNLKYLFYPQFLCEPDSPKCD | no specific elevation of PLAP activity | – | concentration dependent elevations of PLAP activity
C-terminal FLAG tagged mGX-sPLA2: C-terminal FLAG-tagged mouse GX-sPLA2 (SEQ ID NO: 43), purified from Sf-9 culture supernatant (protein, listed as Mus musculus, C-terminal FLAG tag) MLLLLLLLLLGPGPGFSEATRRSHVYKRGLLELAGTLDCVGPRSPMAYMNYGCYCGLGGHGEPRDAIDWCCYHHDCCYSRAQDAGCSPKLDRYPWKCMDHHILCGPAENKCQELLCRCDEELAYCLAGTEYHLKYLFFPSILCEKDSPKCNDYKDDDDK | no elevation of PLAP activity | no elevation of PLAP activity | concentration-dependent elevation of PLAP activity
